According to the supplement of paper PMC9112550, “Optimization of the antimicrobial peptide Bac7 by deep mutational scanning” (BMC Biology, 2022):

system: Escherichia coli TOP10; assay: shrunken log2 fold change of peptide-encoding DNA abundance (4.5 h post-induction vs induction); higher = less antimicrobial activity (less host growth inhibition); conditions: time post-induction: 4.5 h; library: site-saturation at positions 5, 18, 19, 20
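Also: peptides expressed intracellularly from a pBAD plasmid library in pooled LB shake-flask culture, induced with 0.3% L-arabinose, DNA abundance read by NGS, three biological replicates, DESeq2 with apeglm shrinkage.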

Sequence	shrunken log2 fold change
RRIRGRPPRLPRPRPRPRQPPRP	0.283
RRIRLRPPRLPRPRPRPCAQPRP	-0.161
RRIRARPPRLPRPRPRPCLQPRP	-0.0914
RRIRGRPPRLPRPRPRPQIKPRP	0.324
RRIRWRPPRLPRPRPRPKSIPRP	-0.017
RRIRIRPPRLPRPRPRPSMMPRP	-0.886
RRIRFRPPRLPRPRPRPCWHPRP	-0.259
RRIRCRPPRLPRPRPRPGCSPRP	-0.182
RRIRARPPRLPRPRPRPKQGPRP	0.373
RRIRIRPPRLPRPRPRPSNYPRP	-0.086
RRIRYRPPRLPRPRPRPRVTPRP	-0.286
RRIRCRPPRLPRPRPRPEGEPRP	3.03
RRIRSRPPRLPRPRPRPQHWPRP	0.015
RRIRGRPPRLPRPRPRPNKRPRP	0.26
RRIRHRPPRLPRPRPRPVVLPRP	-0.298
RRIRLRPPRLPRPRPRPGRAPRP	0.469
RRIRVRPPRLPRPRPRPFLLPRP	-0.769
RRIRNRPPRLPRPRPRPEFHPRP	-0.0541
RRIRARPPRLPRPRPRPIMAPRP	0.0923
RRIRYRPPRLPRPRPRPPRFPRP	0.0549
RRIRHRPPRLPRPRPRPIGRPRP	-0.00982
RRIRTRPPRLPRPRPRPAWWPRP	0.615
RRIRERPPRLPRPRPRPGMIPRP	-0.439
RRIRDRPPRLPRPRPRPWWTPRP	-0.327
RRIRYRPPRLPRPRPRPYDDPRP	-0.129

Sequence	shrunken log2 fold change
RRIRQRPPRLPRPRPRPGWLPRP	0.193
RRIRNRPPRLPRPRPRPTAEPRP	-0.0644
RRIRKRPPRLPRPRPRPTIQPRP	-0.0129
RRIRDRPPRLPRPRPRPTPEPRP	0.152
RRIRTRPPRLPRPRPRPMKDPRP	-0.303
RRIRSRPPRLPRPRPRPWLGPRP	-0.092
RRIRHRPPRLPRPRPRPMHEPRP	0.0983
RRIRDRPPRLPRPRPRPIWWPRP	0.498
RRIRSRPPRLPRPRPRPHGMPRP	-0.21
RRIRWRPPRLPRPRPRPFNDPRP	-0.153
RRIRYRPPRLPRPRPRPWKYPRP	-0.0732
RRIRQRPPRLPRPRPRPEHQPRP	-0.0955
RRIRVRPPRLPRPRPRPSCRPRP	-0.0227
RRIRHRPPRLPRPRPRPTNRPRP	-0.162
RRIRFRPPRLPRPRPRPVLGPRP	-0.127
RRIRPRPPRLPRPRPRPFDTPRP	-0.126
RRIRDRPPRLPRPRPRPTAMPRP	0.858
RRIRERPPRLPRPRPRPLMLPRP	-0.813
RRIRARPPRLPRPRPRPVKLPRP	-0.59
RRIRARPPRLPRPRPRPHAEPRP	0.955
RRIRWRPPRLPRPRPRPYRPPRP	-0.573
RRIRWRPPRLPRPRPRPCDCPRP	-0.291
RRIRTRPPRLPRPRPRPMPPPRP	0.0692
RRIRERPPRLPRPRPRPNIQPRP	-0.357
RRIRFRPPRLPRPRPRPEWCPRP	0.0522

Sequence	shrunken log2 fold change
RRIRIRPPRLPRPRPRPYYYPRP	-1.08
RRIRSRPPRLPRPRPRPTDPPRP	-0.000503
RRIRERPPRLPRPRPRPFAGPRP	-1.68
RRIRYRPPRLPRPRPRPGTAPRP	-0.39
RRIRCRPPRLPRPRPRPQPMPRP	-0.0366
RRIRNRPPRLPRPRPRPDNMPRP	-0.104
RRIRHRPPRLPRPRPRPPWEPRP	0.193
RRIRTRPPRLPRPRPRPMAVPRP	-0.296
RRIRARPPRLPRPRPRPTYMPRP	-0.36
RRIRFRPPRLPRPRPRPIICPRP	0.12
RRIRCRPPRLPRPRPRPDEWPRP	-0.0372
RRIRHRPPRLPRPRPRPKECPRP	-0.212
RRIRCRPPRLPRPRPRPPKCPRP	0.203
RRIRTRPPRLPRPRPRPRTFPRP	0.0284
RRIRDRPPRLPRPRPRPNRCPRP	0.0339
RRIRIRPPRLPRPRPRPLMQPRP	-0.564
RRIRARPPRLPRPRPRPRYQPRP	-0.274
RRIRWRPPRLPRPRPRPAQNPRP	0.437
RRIRERPPRLPRPRPRPQNDPRP	-0.551
RRIRDRPPRLPRPRPRPCQTPRP	0.00442
RRIRRRPPRLPRPRPRPWCSPRP	-0.0123
RRIRDRPPRLPRPRPRPESHPRP	0.0331
RRIRPRPPRLPRPRPRPTAWPRP	0.666
RRIRCRPPRLPRPRPRPRNSPRP	-0.113
RRIRFRPPRLPRPRPRPTIKPRP	-0.223
